Laboratory results reported in patent publication US20160200782A1 (MOERAE MATRIX, published 2016).

T1: ARK5(h) (human, UniProt O60285 1-661, limits assumed)
T1 sequence (looked up): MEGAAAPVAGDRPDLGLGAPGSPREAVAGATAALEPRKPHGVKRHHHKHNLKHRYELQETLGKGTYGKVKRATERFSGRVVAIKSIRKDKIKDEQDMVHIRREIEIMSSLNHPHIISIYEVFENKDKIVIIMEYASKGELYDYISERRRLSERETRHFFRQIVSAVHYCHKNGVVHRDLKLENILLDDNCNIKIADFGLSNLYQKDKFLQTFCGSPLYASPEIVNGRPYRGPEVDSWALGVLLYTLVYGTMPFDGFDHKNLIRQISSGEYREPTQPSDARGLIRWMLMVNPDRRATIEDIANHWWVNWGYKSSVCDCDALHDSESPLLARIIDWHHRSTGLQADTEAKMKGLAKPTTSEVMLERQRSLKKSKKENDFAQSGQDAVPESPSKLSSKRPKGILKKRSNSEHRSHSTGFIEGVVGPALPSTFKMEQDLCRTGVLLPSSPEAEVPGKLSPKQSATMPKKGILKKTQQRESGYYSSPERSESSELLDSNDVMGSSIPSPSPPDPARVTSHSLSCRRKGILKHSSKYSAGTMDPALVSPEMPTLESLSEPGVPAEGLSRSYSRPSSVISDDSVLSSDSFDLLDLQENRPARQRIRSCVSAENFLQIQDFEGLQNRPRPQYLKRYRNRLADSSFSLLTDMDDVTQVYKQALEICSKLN

T2: Rse(h) (human, UniProt Q06418 451-890, limits assumed)
T2 sequence (looked up): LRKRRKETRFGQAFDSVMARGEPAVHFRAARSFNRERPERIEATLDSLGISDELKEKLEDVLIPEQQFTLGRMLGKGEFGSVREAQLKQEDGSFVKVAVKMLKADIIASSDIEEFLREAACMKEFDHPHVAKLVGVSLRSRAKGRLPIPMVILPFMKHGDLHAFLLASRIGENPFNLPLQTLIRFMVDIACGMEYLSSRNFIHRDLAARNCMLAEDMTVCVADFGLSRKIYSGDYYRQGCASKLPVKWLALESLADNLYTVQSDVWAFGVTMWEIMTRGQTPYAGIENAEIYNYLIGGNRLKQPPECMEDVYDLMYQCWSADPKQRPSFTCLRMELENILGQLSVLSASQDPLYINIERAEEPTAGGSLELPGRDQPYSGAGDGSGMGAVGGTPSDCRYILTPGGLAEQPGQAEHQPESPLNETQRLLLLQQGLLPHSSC

T3: LKB1(h) (human, UniProt Q15831 1-433, limits assumed)
T3 sequence (looked up): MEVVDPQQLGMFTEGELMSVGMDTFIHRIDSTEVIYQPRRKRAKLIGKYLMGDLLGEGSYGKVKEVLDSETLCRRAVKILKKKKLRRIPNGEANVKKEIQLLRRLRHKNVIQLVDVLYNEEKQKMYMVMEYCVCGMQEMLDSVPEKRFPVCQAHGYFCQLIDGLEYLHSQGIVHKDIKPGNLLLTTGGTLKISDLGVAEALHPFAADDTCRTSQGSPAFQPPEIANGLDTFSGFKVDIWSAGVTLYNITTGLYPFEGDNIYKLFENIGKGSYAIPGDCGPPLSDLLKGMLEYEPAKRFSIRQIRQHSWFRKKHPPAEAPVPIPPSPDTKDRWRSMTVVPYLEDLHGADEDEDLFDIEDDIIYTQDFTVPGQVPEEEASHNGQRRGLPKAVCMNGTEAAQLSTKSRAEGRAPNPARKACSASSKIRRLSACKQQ

T4: Flt1(h) (human, UniProt P17948 781-1338, limits assumed)
T4 sequence (looked up): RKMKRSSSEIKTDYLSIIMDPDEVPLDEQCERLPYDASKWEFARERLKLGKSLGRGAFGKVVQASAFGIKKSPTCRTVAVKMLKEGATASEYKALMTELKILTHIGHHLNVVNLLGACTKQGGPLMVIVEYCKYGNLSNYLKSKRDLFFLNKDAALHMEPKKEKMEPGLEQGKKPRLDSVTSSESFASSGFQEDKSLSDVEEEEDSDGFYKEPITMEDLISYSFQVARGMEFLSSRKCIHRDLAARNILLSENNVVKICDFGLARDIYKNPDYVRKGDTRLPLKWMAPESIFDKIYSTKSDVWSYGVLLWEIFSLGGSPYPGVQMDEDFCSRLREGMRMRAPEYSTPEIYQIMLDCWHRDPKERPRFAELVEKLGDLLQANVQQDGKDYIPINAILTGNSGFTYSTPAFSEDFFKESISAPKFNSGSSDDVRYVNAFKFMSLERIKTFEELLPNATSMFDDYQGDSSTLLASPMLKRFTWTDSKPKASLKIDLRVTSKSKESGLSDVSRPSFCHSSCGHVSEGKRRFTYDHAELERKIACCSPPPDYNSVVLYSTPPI


What was measured:
Test in all cases: cell-based or functional assay
CHK2(I157T)(h) = CHK2(I157T)(h) (human, UniProt O96017 5-543, limits assumed)
Pyk2(h) = Pyk2(h) (human, UniProt Q14289 1-1009, limits assumed)
Rsk4(h) = Rsk4(h) (human, UniProt Q9UK32 1-745, limits assumed)
ARK5(h) = molecular target: T1, ARK5(h)
CDK6/cyclinD3(h) = CDK6/cyclinD3(h) (human, UniProt Q00534 1-326; P30281 1-292)
Src(1-530)(h) = Src(1-530)(h) (human, UniProt P12931 1-530)
Hck(h) = Hck(h) (human, UniProt P08631 251-518, limits assumed)
Rse(h) = molecular target: T2, Rse(h)
LKB1(h) = molecular target: T3, LKB1(h)
Met(Y1248D)(h) = Met(Y1248D)(h) (human, UniProt P08581-2 974-1408, limits assumed)
Flt1(h) = molecular target: T4, Flt1(h)
Flt4(h) = Flt4(h) (human, UniProt P35916 800-1363, limits assumed)
PKCθ(h) = PKCθ(h) (human, UniProt Q04759 1-706)
Sequence of PKCθ(h) (Q04759 whole entry): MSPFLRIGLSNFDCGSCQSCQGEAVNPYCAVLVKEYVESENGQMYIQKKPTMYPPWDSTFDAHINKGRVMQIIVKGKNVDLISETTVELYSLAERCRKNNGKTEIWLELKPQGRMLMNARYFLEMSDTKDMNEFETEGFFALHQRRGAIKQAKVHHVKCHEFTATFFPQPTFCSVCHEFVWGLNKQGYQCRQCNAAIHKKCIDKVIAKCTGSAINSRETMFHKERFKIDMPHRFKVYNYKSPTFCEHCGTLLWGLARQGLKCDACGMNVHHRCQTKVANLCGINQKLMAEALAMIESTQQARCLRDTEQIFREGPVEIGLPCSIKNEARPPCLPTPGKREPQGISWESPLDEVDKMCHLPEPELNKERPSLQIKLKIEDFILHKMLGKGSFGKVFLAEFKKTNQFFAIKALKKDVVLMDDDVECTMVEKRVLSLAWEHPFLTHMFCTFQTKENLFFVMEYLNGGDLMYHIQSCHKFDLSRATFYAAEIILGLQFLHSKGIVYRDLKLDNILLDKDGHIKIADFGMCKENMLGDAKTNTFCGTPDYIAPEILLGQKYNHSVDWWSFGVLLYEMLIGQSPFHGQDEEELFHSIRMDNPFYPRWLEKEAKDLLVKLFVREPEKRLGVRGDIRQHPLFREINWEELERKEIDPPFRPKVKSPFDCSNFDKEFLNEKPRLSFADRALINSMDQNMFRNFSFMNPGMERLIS

Sequence of Rsk4(h) (Q9UK32 whole entry): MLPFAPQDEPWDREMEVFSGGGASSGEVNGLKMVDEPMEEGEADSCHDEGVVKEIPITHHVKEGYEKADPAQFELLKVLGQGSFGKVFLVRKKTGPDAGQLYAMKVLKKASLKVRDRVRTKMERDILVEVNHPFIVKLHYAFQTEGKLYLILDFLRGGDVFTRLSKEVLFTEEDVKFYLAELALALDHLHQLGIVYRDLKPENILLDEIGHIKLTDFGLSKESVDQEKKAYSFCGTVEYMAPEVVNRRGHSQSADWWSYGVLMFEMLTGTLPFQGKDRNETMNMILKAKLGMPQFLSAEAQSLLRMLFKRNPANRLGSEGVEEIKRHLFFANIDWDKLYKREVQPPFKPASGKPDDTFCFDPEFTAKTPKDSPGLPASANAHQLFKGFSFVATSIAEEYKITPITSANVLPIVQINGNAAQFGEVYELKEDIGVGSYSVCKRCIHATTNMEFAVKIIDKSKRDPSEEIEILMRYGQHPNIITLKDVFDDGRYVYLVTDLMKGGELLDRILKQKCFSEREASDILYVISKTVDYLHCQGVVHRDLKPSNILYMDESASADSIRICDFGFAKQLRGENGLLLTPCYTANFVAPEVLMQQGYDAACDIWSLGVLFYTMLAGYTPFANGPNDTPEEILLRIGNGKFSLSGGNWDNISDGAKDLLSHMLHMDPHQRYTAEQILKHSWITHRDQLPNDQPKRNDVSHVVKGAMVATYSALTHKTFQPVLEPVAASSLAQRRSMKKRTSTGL
Sequence of CDK6/cyclinD3(h) (Q00534 whole entry, chain 1 of 2): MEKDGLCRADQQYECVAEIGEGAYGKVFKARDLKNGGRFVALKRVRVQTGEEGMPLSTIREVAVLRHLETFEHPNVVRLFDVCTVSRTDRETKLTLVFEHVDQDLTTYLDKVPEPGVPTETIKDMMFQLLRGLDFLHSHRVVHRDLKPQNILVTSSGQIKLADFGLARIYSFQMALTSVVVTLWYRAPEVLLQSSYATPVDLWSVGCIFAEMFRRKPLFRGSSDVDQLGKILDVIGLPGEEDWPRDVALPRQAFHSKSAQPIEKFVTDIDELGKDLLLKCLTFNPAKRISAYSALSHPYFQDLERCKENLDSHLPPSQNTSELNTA
Sequence of CDK6/cyclinD3(h) (P30281 whole entry, chain 2 of 2): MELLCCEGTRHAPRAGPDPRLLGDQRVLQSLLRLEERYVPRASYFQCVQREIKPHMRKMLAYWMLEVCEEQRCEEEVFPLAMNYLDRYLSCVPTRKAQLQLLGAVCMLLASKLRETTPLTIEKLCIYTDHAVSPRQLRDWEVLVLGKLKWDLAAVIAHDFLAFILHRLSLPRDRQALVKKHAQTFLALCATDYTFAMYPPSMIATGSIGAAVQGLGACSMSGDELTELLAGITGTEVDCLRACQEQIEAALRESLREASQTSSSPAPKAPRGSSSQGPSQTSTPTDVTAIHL
Sequence of Hck(h) (P08631 251-518 limits assumed): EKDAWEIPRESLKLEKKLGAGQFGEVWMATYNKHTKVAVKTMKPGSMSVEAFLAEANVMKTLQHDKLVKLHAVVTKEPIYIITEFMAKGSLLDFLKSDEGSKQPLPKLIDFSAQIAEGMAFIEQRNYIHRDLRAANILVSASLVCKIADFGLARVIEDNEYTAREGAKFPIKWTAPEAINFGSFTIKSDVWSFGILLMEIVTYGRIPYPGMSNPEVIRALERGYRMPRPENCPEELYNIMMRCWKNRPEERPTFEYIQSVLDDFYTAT
Sequence of CHK2(I157T)(h) (O96017 5-543 I157T limits assumed): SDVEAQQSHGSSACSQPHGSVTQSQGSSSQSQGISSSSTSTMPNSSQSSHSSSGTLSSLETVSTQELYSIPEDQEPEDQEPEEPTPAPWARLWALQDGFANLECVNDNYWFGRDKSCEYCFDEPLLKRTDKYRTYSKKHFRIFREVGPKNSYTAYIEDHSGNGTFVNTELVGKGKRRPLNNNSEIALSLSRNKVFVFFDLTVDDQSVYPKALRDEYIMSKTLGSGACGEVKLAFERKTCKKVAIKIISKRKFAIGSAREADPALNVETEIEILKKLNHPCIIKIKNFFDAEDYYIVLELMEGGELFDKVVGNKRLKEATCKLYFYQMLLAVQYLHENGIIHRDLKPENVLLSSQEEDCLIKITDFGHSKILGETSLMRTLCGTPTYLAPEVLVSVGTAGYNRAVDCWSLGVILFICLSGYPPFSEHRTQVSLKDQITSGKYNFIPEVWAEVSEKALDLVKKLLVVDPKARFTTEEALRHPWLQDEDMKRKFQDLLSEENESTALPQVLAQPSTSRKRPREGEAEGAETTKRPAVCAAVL
Sequence of Flt4(h) (P35916 800-1363 limits assumed): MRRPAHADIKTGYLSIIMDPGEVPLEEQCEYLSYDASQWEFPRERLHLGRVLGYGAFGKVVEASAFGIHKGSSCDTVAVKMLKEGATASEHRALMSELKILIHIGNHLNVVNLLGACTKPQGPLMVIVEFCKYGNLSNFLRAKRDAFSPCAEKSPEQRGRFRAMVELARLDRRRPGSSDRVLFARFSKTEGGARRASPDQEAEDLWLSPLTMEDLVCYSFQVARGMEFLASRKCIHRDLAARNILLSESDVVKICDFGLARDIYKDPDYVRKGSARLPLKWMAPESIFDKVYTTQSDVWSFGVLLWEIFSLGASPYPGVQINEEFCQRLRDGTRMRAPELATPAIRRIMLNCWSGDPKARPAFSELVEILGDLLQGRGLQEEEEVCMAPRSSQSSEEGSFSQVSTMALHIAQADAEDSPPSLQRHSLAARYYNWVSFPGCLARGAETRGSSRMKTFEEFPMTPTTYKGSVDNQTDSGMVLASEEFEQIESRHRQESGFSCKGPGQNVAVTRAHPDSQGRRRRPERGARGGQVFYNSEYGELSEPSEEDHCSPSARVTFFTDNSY
Sequence of Pyk2(h) (Q14289 whole entry): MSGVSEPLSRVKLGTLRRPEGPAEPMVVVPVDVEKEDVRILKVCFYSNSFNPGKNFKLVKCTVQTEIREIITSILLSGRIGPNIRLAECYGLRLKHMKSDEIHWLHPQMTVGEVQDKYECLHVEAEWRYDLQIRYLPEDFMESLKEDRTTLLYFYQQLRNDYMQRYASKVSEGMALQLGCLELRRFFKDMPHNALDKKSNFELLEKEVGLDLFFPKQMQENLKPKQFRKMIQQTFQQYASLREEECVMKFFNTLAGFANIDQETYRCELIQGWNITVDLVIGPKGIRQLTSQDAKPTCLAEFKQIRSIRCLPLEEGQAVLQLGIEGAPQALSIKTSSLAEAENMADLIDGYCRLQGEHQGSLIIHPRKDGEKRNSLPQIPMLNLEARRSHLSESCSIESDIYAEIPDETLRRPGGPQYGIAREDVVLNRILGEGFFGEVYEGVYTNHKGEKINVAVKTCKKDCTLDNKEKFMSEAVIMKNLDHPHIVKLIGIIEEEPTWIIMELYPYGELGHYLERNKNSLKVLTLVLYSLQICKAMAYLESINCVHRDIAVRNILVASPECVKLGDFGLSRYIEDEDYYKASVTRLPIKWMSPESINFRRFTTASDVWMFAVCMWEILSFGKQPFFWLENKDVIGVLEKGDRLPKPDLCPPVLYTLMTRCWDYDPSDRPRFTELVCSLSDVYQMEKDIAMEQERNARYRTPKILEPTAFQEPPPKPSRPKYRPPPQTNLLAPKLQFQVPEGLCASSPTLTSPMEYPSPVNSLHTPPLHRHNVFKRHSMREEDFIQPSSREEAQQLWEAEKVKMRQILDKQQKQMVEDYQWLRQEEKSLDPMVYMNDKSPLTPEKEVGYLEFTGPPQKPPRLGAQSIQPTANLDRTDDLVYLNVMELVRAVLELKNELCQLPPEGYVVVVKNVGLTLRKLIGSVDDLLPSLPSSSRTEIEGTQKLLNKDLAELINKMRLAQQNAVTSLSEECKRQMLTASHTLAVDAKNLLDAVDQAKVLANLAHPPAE

Row | % activity (CHK2(I157T)(h)) | % activity (Pyk2(h)) | % activity (Rsk4(h)) | % activity (ARK5(h)) | % activity (CDK6/cyclinD3(h)) | % activity (Src(1-530)(h)) | % activity (Hck(h)) | % activity (Rse(h)) | % activity (LKB1(h)) | % activity (Met(Y1248D)(h)) | % activity (Flt1(h)) | % activity (Flt4(h)) | % activity (PKCθ(h)) | Binder
1 | 43% | 47% | 90% | 78% | 86% | 23% | 72% | 88% | 101% | 102% | 69% | 83% | 88% | FAKLAARLYRKALARQLGVAA [MMI-0300]
2 | 41% | 34% | 91% | 69% | 85% | 19% | 72% | 89% | 89% | 31% | 48% | 89% | 76% | KAFAKLAARLYRKALARQLGVAA [MMI-0400]
